B1: cyclophilin domain from human NUP358 (domain or fragment)
chain: ELSKETNPVVFFDVCADGEPLGRITMELFSNIVPRTAENFRALCTGEKGFGFKNSIFHRVIPDFVCQGGDITKHDGTGGQSIYGDKFEDENFDVKHTGPGLLSMANQGQNTNNSQFVITLKKAEHLDFKHVVFGFVKDGMDTVKKIESFGSPKGSVCRRITITECGQI
B2: NUP358Cyp V61M/V113F (domain or fragment)
chain: ELSKETNPVVFFDVCADGEPLGRITMELFSNIVPRTAENFRALCTGEKGFGFKNSIFHRVIPDFMCQGGDITKHDGTGGQSIYGDKFEDENFDVKHTGPGLLSMANQGQNTNNSQFFITLKKAEHLDFKHVVFGFVKDGMDTVKKIESFGSPKGSVCRRITITECGQI
B3: NUP358Cyp V113F (domain or fragment)
chain: ELSKETNPVVFFDVCADGEPLGRITMELFSNIVPRTAENFRALCTGEKGFGFKNSIFHRVIPDFVCQGGDITKHDGTGGQSIYGDKFEDENFDVKHTGPGLLSMANQGQNTNNSQFFITLKKAEHLDFKHVVFGFVKDGMDTVKKIESFGSPKGSVCRRITITECGQI

Columns and labels:
[1] = target: T1, FIV N-terminal capsid domain (feline immunodeficiency virus (FIV)); assay: ITC
T1 chain: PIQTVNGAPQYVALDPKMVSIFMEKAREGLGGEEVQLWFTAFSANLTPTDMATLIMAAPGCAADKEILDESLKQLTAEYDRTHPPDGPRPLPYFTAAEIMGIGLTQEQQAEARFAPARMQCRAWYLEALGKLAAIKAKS

[2] = target: HIV-1 M-group (NL4-3) N-terminal capsid domain (HIV-1 M-group (NL4-3)); assay: ITC

Row | Binder | Kd [1] | Kd [2]
1 | B1 | 290 µM | –
2 | B2 | – | 31 µM
3 | B3 | – | 92 µM
